Test results from the nanobody polyreactivity screen of Harvey et al. (2022).

Assay: yeast display, Sf9 membrane polyspecificity reagent, FACS + sequencing; frameworks hold sequencing errors
Outline: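 Nanobodies came from a synthetic yeast display library in Saccharomyces cerevisiae BJ5465, induced with galactose for 36–48 hours and stained for 1 hour at 4 °C with 10% biotinylated, detergent-solubilized Sf9 membrane reagent. Cells were enriched on streptavidin microbeads and then FACS-sorted, with low and high (top ~1%) gates set on anti-HA fluorescence for expression and streptavidin fluorescence for reagent binding. Each polyreactivity label reflects the gate a clone came from. Genes were amplified by colony PCR, sequenced by MiSeq 2 × 250 and filtered by CDR length.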

QVQLVESGGGLVQAGGSLRLSCAASGSTFYYNAMGWYRQAPGKERELVASISRSGGSTYADSVKGRFTISRDNAKNTVYLQMNSLKPVDTAVYYCNADAYGTPEFTSYAVRYDYWGQGTQVTVSS
polyreactivity (PSR sort gate): low polyreactivity

QVQLVESGGGLVQAGGSLRLSCAASGSTFYYNSMGWYRQAPGKERELVARISRSGGSTYADSVKGRFTISRDNAKNTVYLQMNSLKPEDTAVYYCAKDYAPSATKLHYWGQGTQVTVSS
polyreactivity (PSR sort gate): low polyreactivity

QVQLVESGGGLVQAGGSLRLSCAASGSTFYYNVMGWYRQAPGKERELVAAISNAGTTNYADSVKGRFTISRDNAKNTVYLQMNSLKPEDTAVYYCNAEFIGPEGYWWYIEYYYWGQGTQVTVSS
polyreactivity (PSR sort gate): low polyreactivity

QVQLVESGGGLVQAGGSLRLSCAASGSTFYYYAMGGYRQAPGKERELVAAISISDNSTYYADSVKGRFTSSRDNAKNTVYLQMNSLKPEDTAVYYCAAYGWYAHDDSTYDYWGQGTQVTVSS
polyreactivity (PSR sort gate): low polyreactivity

QVQLVESGGGLVQAGGSLRLSCAASGSTFYYYAMGWSRPAPGKERELVAAISTRGGSTYYADSVKGRFTISRDNAKNTVYLQMNSLKPEDTAVYYCAKKYGYFGLHGYWGQGTQVTVSS
polyreactivity (PSR sort gate): high polyreactivity

QVQLVESGGGLVQAGGSLRLSCAASGSTFYYYAMGWSRQAPGKERELVAAITRGGSTYYADSVKGRFTISRDNAKNTVYLQMNSLRPEDTAVYYCAAKSAYHGLVGGYYYWGQGTQVTVSS
polyreactivity (PSR sort gate): high polyreactivity

QVQLVESGGGLVQAGGSLRLSCAASGSTFYYYAMGWYRQAPGKEREFVAAITWSGGSTYYADSVKGRFTISRDNAKNTVYLQMNSLKQEDTGVYYCAKDQRYYYYGGGDYWGQGTQLTVSS
polyreactivity (PSR sort gate): low polyreactivity

QVQLVESGGGLVQAGGSLRLSCAASGSTFYYYAMGWYRQAPGKERELVAAISKSGGSTYYADSVKGRFTISRDNAKNTVYLQMNSLKPEDTAVYYCAARGRYISDYWGQGTQVTVSS
polyreactivity (PSR sort gate): high polyreactivity

QVQLVESGGGLVQAGGSLRLSCAASGSTFYYYAMGWYRQAPGKERELVAAITYSGGGTYYADSVKGRFTISRDNAKNTVYLQMNSLKPEDTAVYYCAKTIAVNTWYYYWGQGTQVTVSS
polyreactivity (PSR sort gate): low polyreactivity

QVQLVESGGGLVQAGGSLRLSCAASGSTFYYYAMGWYRQAPGKERELVASISFSGGSTYYADSVKGRFTISRDNAKNTVYLQMNSLKPEDTAVYYCGYYYWGQGTQVTVSS
polyreactivity (PSR sort gate): low polyreactivity

QVQLVESGGGLVQAGGSLRLSCAASGSTFYYYAMGWYRQAPGKERELVASISSAGNTNYADSVKGRFTISRDNAKNTVYLQMNSLKPEDTAVYYCAARYSGHPRYYYYWGQGTQVTVSS
polyreactivity (PSR sort gate): low polyreactivity

QVQLVESGGGLVQAGGSLRLSCAASGSTFYYYAMGWYRQAPGKERELVATISSGSSTNYADSVKGRFTISRDNAKNTVYLQMNSLIPEDTAVYYCAADRWYINLYIDATISYDYWGQGTQVTVSS
polyreactivity (PSR sort gate): low polyreactivity

QVQLVESGGGLVQAGGSLRLSCAASGSTFYYYARGWYRQAPGKERELVAAISTSDGSTYYADSVKGRFTISRDNAKNTVYLQMNSLKPEDTAVYYCAADSYERFASYYYWGQGTQVTVSS
polyreactivity (PSR sort gate): low polyreactivity

QVQLVESGGGLVQAGGSLRLSCAASGSTFYYYTMGWYRQAPGKERELVAISWDGDSTYSADSVKGRFTISRDNAKNTVYLQMNSLKPEDTAVYYCAAADYYLPDDVSDYVDANFDYWGQGTQVTVSS
polyreactivity (PSR sort gate): low polyreactivity

QVQLVESGGGLVQAGGSLRLSCAASGSTGVNTMGWYRQAPGKERELVAAIRATGGSTYYADSVKGRFTISRDNAKNTVYLQMNSLKPEDTAVYYCAARYYRSQYWYDDSWGQGTQVTVSS
polyreactivity (PSR sort gate): high polyreactivity

QVQLVESGGGLVQAGGSLRLSCAASGSTIAYYTMGWYRQAPGKERELVAAISASGGSTYYADSVKGRFTISRDNAKNTFYIQMNSLKPEDTAVYYCNAESYLTGWWVDYWGQGTQVTVSS
polyreactivity (PSR sort gate): low polyreactivity

QVQLVESGGGLVQAGGSLRLSCAASGSTIDGNAMGWYRQAPGKERELVAAITSGGSTNYADSVKGRFTISRDNAKNTVYLQMNSLKPEDTAVYYCAADTVSFSILYDYWGQGTQVTVSS
polyreactivity (PSR sort gate): low polyreactivity

QVQLVESGGGLVQAGGSLRLSCAASGSTIDKYAMGWYRQAPGKERELVAAIRKSGGRTYYADSVKGRFTISRDNAKHTVYLQMYSLKQEDTAVYYCAAVLPNYYSVRYGYWGQGTQVSVSS
polyreactivity (PSR sort gate): high polyreactivity

QVQLVESGGGLVQAGGSLRLSCAASGSTIDYYAMGWYRQARGKERELVAAISWSGGSTYYADSVKGRFTISRDNAKNTVYLQMNSLKPEDTAVYYCAADSAFYTGSYYGWSDYDYWGQGTQVTVSS
polyreactivity (PSR sort gate): low polyreactivity

QVQLVESGGGLVQAGGSLRLSCAASGSTIERYAMGWYRHAPGKERELVAAIRWSGGSTYYADSVKGRFTISRDNAKNTVYLQMNSLKPEDTAVYYCAASRSNADWFDSWGQGTQVTVSS
polyreactivity (PSR sort gate): high polyreactivity

QVQLVESGGGLVQAGGSLRLSCAASGSTIKYYAMGWYRPAPGKERELVAAISKGATRTYYADSVKGRFTISRDHAKNTVYLQMNSLKPEDTAVYFCAADRLKFPCEYDYWGHGTQVTVSS
polyreactivity (PSR sort gate): high polyreactivity

QVQLVESGGGLVQAGGSLRLSCAASGSTINQYAMGWYRQAPGKERELVAAITRRGGSTYYADSVKGRFTISRDNAKNTVYLQMNSLKPEDTAVYYCAAAYPYTTVSYDYWGQGTQVTVSS
polyreactivity (PSR sort gate): high polyreactivity

QVQLVESGGGLVQAGGSLRLSCAASGSTINYNAMGWYRQAPGKERELVAAIDSGVSTNYADSVKGRFTISRDNAKNTVYFQMNSLKPEDTAVYYCNADPDYFDYWGQGTQVTVSS
polyreactivity (PSR sort gate): low polyreactivity

QVQLVESGGGLVQAGGSLRLSCAASGSTIPLYAMGWYRQAPGKERELVAAISRRGGRTYYADSVKGRFTISRDNAKNSVYLQMNSLKPEDTGVYYCAARYTRRHYDYWGQGTKVTVSS
polyreactivity (PSR sort gate): high polyreactivity

QVQLVESGGGLVQAGGSLRLSCAASGSTIPSYAMGWYRQATGKERELVASITYSDGTTRYADSVKGRFTISRDYAKNTVYFQMYSLKPEDTAVYYCNAVYYREGMDYWGQGTQVSVSS
polyreactivity (PSR sort gate): low polyreactivity

QVQLVESGGGLVQAGGSLRLSCAASGSTIPYYAMGWYRQAPGKERELVATISSSGGSTYYADSVKGRFTISRDNAKNTVYLQMKSLKPEDTAVYYCAARYQTSGFRYRYGYWGQGTQVTVSS
polyreactivity (PSR sort gate): high polyreactivity

QVQLVESGGGLVQAGGSLRLSCAASGSTIQSNMGWYRQAPGKERELVAAITTNGSSTYYADSVKGRFTISRDNAKNTVYLQMNCLKPEDTAVYDCAAGPRYRYYYGWYDYWGQGTQVNVSS
polyreactivity (PSR sort gate): high polyreactivity

QVQLVESGGGLVQAGGSLRLSCAASGSTIRGYAMGWYRQAPGKEREFVAAITVNGGNTYYADSVKGRFTISRDNAKNTVYLQMNSLKPEDTAVYYCNVPVTVGKDSITEHYYWGLGTQVTVSS
polyreactivity (PSR sort gate): low polyreactivity

QVQLVESGGGLVQAGGSLRLSCAASGSTIRGYARGWYRQAPGKEREFVAAITVNGGNTYYAESVKGRFTLSRDNAKNTVYLQMNSLKPEDTEGYYCNVPVTVVKASITEHYYWGQGTQVTVSS
polyreactivity (PSR sort gate): low polyreactivity

QVQLVESGGGLVQAGGSLRLSCAASGSTIRLYAMGWYRQAPGKERELVAAISVSGGSTHYADSVKGRFTISRDNAKNTVYLQMNSLKPEDTAVYYCNAAGNPVSRYHYDYWGQGTQVTVSS
polyreactivity (PSR sort gate): high polyreactivity

QVQLVESGGGLVQAGGSLRLSCAASGSTISGYAMGWYRQAPGKERELVAAISSGGSTYYADSVKGRFTISRDNAKNTVYLQLNSLKPEDTAVFYCNVARSRYRYRYDYWGQGTQVTVSS
polyreactivity (PSR sort gate): high polyreactivity

QVQLVESGGGLVQAGGSLRLSCAASGSTISSNAMGWYRQAPGKERELVAAIDSGGSTYYADSVKGRFTISRDNAKNTVYLQMNSLKPEDTAVYYCNPERETYDTGRAVLPGGYWGQGTQVTVSS
polyreactivity (PSR sort gate): low polyreactivity

QVQLVESGGGLVQAGGSLRLSCAASGSTISYNAMGWYRQAPGKERELVAAIRTSGGRTYYADSVKGRFTISRDNAKNTVYLQMNSLKPEDTAVYYCAKRWVYRYGYEYWGQGTQVTVSS
polyreactivity (PSR sort gate): high polyreactivity

QVQLVESGGGLVQAGGSLRLSCAASGSTITGNTMGWYRQAPGKERELVAAITNGGSTYYADSVKGRFTISRDNAKNTVYLQMNSLKPEDTAVYYCAAESTFYGYDYWGQGTQVTVSS
polyreactivity (PSR sort gate): high polyreactivity

QVQLVESGGGLVQAGGSLRLSCAASGSTITVNDMGWYRQAPGKERELVAAITQRDGRTFYADSVKGRFTISRDNAKNTVYLQMNSLKPVDTSVYYFAADYVWYTYGDYDYWGLGTQVTVSS
polyreactivity (PSR sort gate): low polyreactivity

QVQLVESGGGLVQAGGSLRLSCAASGSTIVNNAMGWYIQAPGKERELVAAIRSSDGRTYYADSVKGRFTISRDNAKNTVYLQMNSLKPEDTAVYYCNRRYRKYSSAKYDYWGQGTQVTVSS
polyreactivity (PSR sort gate): high polyreactivity

QVQLVESGGGLVQAGGSLRLSCAASGSTIVYYAMGWYRQAPGKERELVAAISGSGGSTYYADSVKGRFTISRDNAKNTVYLQMNSLKPEDTAVYYCAKSYGSHRKIRTSFGYWGQGTQVTVSS
polyreactivity (PSR sort gate): high polyreactivity

QVQLVESGGGLVQAGGSLRLSCAASGSTIWFYVMGWYRQAPGKERELVATIRWSTSSTYADSVKGRFTISRDNAMNTVYLQMNILKPEDTAVYYCNAQYSQVNGYDYWGQGTQVTVSS
polyreactivity (PSR sort gate): low polyreactivity

QVQLVESGGGLVQAGGSLRLSCAASGSTIYDNAMGWYRQATGKESELVAAITWSVGRTYYADSVKGRFTISRDNAKNTVYLQMNSMKPEDTAVYYCAARSQDRTYFQVFVSDTPYNYWGQGTQVTVSS
polyreactivity (PSR sort gate): low polyreactivity

QVQLVESGGGLVQAGGSLRLSCAASGSTIYFNAMGRYRQAPGKERELAAGIRSSGGSTYYADSVKGRFTISRDNAKNTVYLQMISLKPEDTAVYYCAGVRYRELYWGQGTQVTVSS
polyreactivity (PSR sort gate): high polyreactivity

QVQLVESGGGLVQAGGSLRLSCAASGSTIYGYAMGWYRQAPGKERELVAAISISGGGTYYADSVKGRFTISRDNAKNTVYLQMNSLKPEDTAVYYCARRYFWGQGTQVTVSS
polyreactivity (PSR sort gate): low polyreactivity

QVQLVESGGGLVQAGGSLRLSCAASGSTIYGYGMGWYRQAPGKERELVAAITGSGDTTYYADSVKGRFTISRDNAKNNVYLQMNSLKPEDTAVYYCNARWHAEYDYWGQGTQVTVSS
polyreactivity (PSR sort gate): low polyreactivity

QVQLVESGGGLVQAGGSLRLSCAASGSTIYLYAMGWYRQAPGKERELVAAIRGRGGRTYYADSVKGRFTISRDNAKNTVYLQMNSLKPEDTAVDYCNADVYAYYRATTRFDYWGQGTQVTVSS
polyreactivity (PSR sort gate): high polyreactivity
